Test results reported in patent publication US20230212319A1, “NOVEL ANTIGEN BINDING DOMAINS AND SYNTHETIC ANTIGEN RECEPTORS INCORPORATING THE SAME” (University of Southern California, priority 2020, published 2023).

Test system: RAJI cells
Assay: JNG assay, co-culture with RAJI cells
Assay type: cell-based
Settings: JNG cells expressing construct, co-culture with Raji
Procedure, shortened: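 Jurkat NFAT-GFP (JNG) cells stably transduced with SARs by lentivirus, with drug selection where the construct carried a resistance gene, then co-cultured with target cells at E:T ~1:2 for ~4–18 h. % GFP-positive cells measured by FACS against parental JNG; +/- to 5+ correspond to ~5–50% GFP-positive.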

Molecule | NFAT-GFP ASSAY: Raji
22056 (protein) MALPVTALLLPLALLLHAARPQLQLQESGPGLVKPSETLSLTCTVSGDSISSGDYYWGWIRQPPGKGLEWIGHIYYSGVTYYNPSLKSRVTISVDTSRNQFSLKLSSVTAADTAVYYCTREDSSNWRSRGQGTLVTVSSLEGSPIKTDVITMDPKDNCSKDANDTLLLQLTNTSAYYMYLLLLLKSVVYFAIITCCLLRRTAFCCNGEKSRAKRSGSGATNFSLLKQAGDVEENPGPTSMDWIWRILFLVGAATGAHSFEVQLVESGGGVVQPGRSLRLSCAASGFSFSGYGMHWVRQAPGKGLEWVAYISYDGSNKYYADSVKGRFTISRDNSKNTLYLQMNSLRAEDTAVYYCAKDPAWGLRLGESSSYDFDIWGQGTMVTVSSTRDKTHTCPPCPAGRADCGFTSESYQQGVLSATILYEILLGKATLYAVLVSALVLMAMVKRKDFRAKRSGSGATNFSLLKQAGDVEENPGPSRGHMTEYKPTVRLATRDDVPRAVRTLAAAFADYPATRHTVDPDRHIERVTELQELFLTRVGLDIGKVWVADDGAAVAVWTTPESVEAGAVFAEIGPRMAELSGSRLAAQQQMEGLLAPHRPKEPAWFLATVGVSPDHQGKGLGSAVVLPGVEAAERAGVPAFLETSAPRNLPFYERLGFTVTADVEVPEGPRTWCMTRKPGA | +/- (refer to approximately 5%, 10%, 20%, 30%, 40% and 50% GFP positive cells)
22069 (protein) MALPVTALLLPLALLLHAARPQLQLQESGPGLVKPSETLSLTCTVSGDSISSGDYYWGWIRQPPGKGLEWIGHIYYSGVTYYNPSLKSRVTISVDTSRNQFSLKLSSVTAADTAVYYCTREDSSNWRSRGQGTLVTVSSLEGGGGSGGGGSGGGGSVEIQNPDPAVYQLRDSKSSDKSVCLFTDFDSQTNVSQSKDSDVYITDKCVLDMRSMDFKSNSAVAWSNKSDFACANAFNNSIIPEDTFFPSPESSCDVKLVEKSFETDTNLNFQNLSVIGFRILLLKVAGFNLLMTLRLWSSSSRAKRSGSGVKQTLNFDLLKLAGDVESNPGPTSMDWIWRILFLVGAATGAHSFEVQLLESGGGLIQPGGSLRLSCAASGFTFSSHAMTWVRQAPGKGLEWVSAISGSGDYTHYADSVKGRFTISRDNSKNTVYLQMNSLRAEDSAVYYCAKDEDGGSLLGHRGQGTLVTVSSTRIQNPDPAVYQLRDSKSSDKSVCLFTDFDSQTNVSQSKDSDVYITDKCVLDMRSMDFKSNSAVAWSNKSDFACANAFNNSIIPEDTFFPSPESSCDVKLVEKSFETDTNLNFQNLSVIGFRILLLKVAGFNLLMTLRLWSSRAKRSGSGVKQTLNFDLLKLAGDVESNPGPSRGHMTEYKPTVRLATRDDVPRAVRTLAAAFADYPATRHTVDPDRHIERVTELQELFLTRVGLDIGKVWVADDGAAVAVWTTPESVEAGAVFAEIGPRMAELSGSRLAAQQQMEGLLAPHRPKEPAWFLATVGVSPDHQGKGLGSAVVLPGVEAAERAGVPAFLETSAPRNLPFYERLGFTVTADVEVPEGPRTWCMTRKPGA | + (refer to approximately 5%, 10%, 20%, 30%, 40% and 50% GFP positive cells)
22080 (protein) MALPVTALLLPLALLLHAARPQLQLQESGPGLVKPSETLSLTCTVSGDSISSGDYYWGWIRQPPGKGLEWIGHIYYSGVTYYNPSLKSRVTISVDTSRNQFSLKLSSVTAADTAVYYCTREDSSNWRSRGQGTLVTVSSLESGGGGSFEEVQLLESGGGLVQPGGSLRLSCAASGFTFSSYAMSWVRQAPGKGLEWVSSISGSGDYIYYADSVKGRFTISRDISKNTLYLQMNSLRAEDTAVYYCAKEGTGANSSLADYRGQGTLVTVSSTRASTKGPSVFPLAPSSKSTSGGTAALGCLVKDYFPEPVTVSWNSGALTSGVHTFPAVLQSSGLYSLSSVVTVPSSSLGTQTYICNVNHKPSNTKVDKRVEPKSCIPEDTFFPSPESSCDVKLVEKSFETDTNLNFQNLSVIGFRILLLKVAGFNLLMTLRLWSSRAKRSGSGVKQTLNFDLLKLAGDVESNPGPSRGHMTEYKPTVRLATRDDVPRAVRTLAAAFADYPATRHTVDPDRHIERVTELQELFLTRVGLDIGKVWVADDGAAVAVWTTPESVEAGAVFAEIGPRMAELSGSRLAAQQQMEGLLAPHRPKEPAWFLATVGVSPDHQGKGLGSAVVLPGVEAAERAGVPAFLETSAPRNLPFYERLGFTVTADVEVPEGPRTWCMTRKPGA | + (refer to approximately 5%, 10%, 20%, 30%, 40% and 50% GFP positive cells)
22082 (protein) MALPVTALLLPLALLLHAARPQLQLQESGPGLVKPSETLSLTCTVSGDSISSGDYYWGWIRQPPGKGLEWIGHIYYSGVTYYNPSLKSRVTISVDTSRNQFSLKLSSVTAADTAVYYCTREDSSNWRSRGQGTLVTVSSLESGGGGSFEQLQLQESGPGLVKPSETLSLTCTVSGGSISSGDYYWGWIRQPPGKGLEWIGHIYYSGATYYNPSLKSRVTISVDTSRNQFSLKLSSVTAADTAVYYCTRDDSSNWRSRGQGTLVTVSSTRASTKGPSVFPLAPSSKSTSGGTAALGCLVKDYFPEPVTVSWNSGALTSGVHTFPAVLQSSGLYSLSSVVTVPSSSLGTQTYICNVNHKPSNTKVDKRVEPKSCIPEDTFFPSPESSCDVKLVEKSFETDTNLNFQNLSVIGFRILLLKVAGFNLLMTLRLWSSRAKRSGSGVKQTLNFDLLKLAGDVESNPGPSRGHMTEYKPTVRLATRDDVPRAVRTLAAAFADYPATRHTVDPDRHIERVTELQELFLTRVGLDIGKVWVADDGAAVAVWTTPESVEAGAVFAEIGPRMAELSGSRLAAQQQMEGLLAPHRPKEPAWFLATVGVSPDHQGKGLGSAVVLPGVEAAERAGVPAFLETSAPRNLPFYERLGFTVTADVEVPEGPRTWCMTRKPGA | +/- (refer to approximately 5%, 10%, 20%, 30%, 40% and 50% GFP positive cells)
22097 (protein) MALPVTALLLPLALLLHAARPQLQLQESGPGLVKPSETLSLTCTVSGDSISSGDYYWGWIRQPPGKGLEWIGHIYYSGVTYYNPSLKSRVTISVDTSRNQFSLKLSSVTAADTAVYYCTREDSSNWRSRGQGTLVTVSSLEGQPKANPTVTLFPPSSEELQANKATLVCLISDFYPGAVTVAWKADGSPVKAGVETTKPSKQSNNKYAASSYLSLTPEQWKSHRSYSCQVTHEGSTVEKTVAPTECSGRADCGFTSESYQQGVLSATILYEILLGKATLYAVLVSALVLMAMVKRKDSRGRAKRSGSGATNFSLLKQAGDVEENPGPTSMDWIWRILFLVGAATGAHSFEVQLLESGGGLIQPGGSLRLSCAASGFTFSSHAMTWVRQAPGKGLEWVSAISGSGDYTHYADSVKGRFTISRDNSKNTVYLQMNSLRAEDSAVYYCAKDEDGGSLLGHRGQGTLVTVSSTRASTKGPSVFPLAPSSKSTSGGTAALGCLVKDYFPEPVTVSWNSGALTSGVHTFPAVLQSSGLYSLSSVVTVPSSSLGTQTYICNVNHKPSNTKVDKRVEPKSCIPEDTFFPSPESSCDVKLVEKSFETDTNLNFQNLSVIGFRILLLKVAGFNLLMTLRLWSSRAKRSGSGVKQTLNFDLLKLAGDVESNPGPSRGHMTEYKPTVRLATRDDVPRAVRTLAAAFADYPATRHTVDPDRHIERVTELQELFLTRVGLDIGKVWVADDGAAVAVWTTPESVEAGAVFAEIGPRMAELSGSRLAAQQQMEGLLAPHRPKEPAWFLATVGVSPDHQGKGLGSAVVLPGVEAAERAGVPAFLETSAPRNLPFYERLGFTVTADVEVPEGPRTWCMTRKPGA | + (refer to approximately 5%, 10%, 20%, 30%, 40% and 50% GFP positive cells)
22200 (protein) MTIRLLCYMGFYFLGAGLMEADIYQTPRYLVIGTGKKITLECSQTMGHDKMYWYQQDPGMELHLIHYSYGVNSTEKGDLSSESTVSRIRTEHFPLTLESARPSHTSQYLCASSEARGLAEFTDTQYFGPGTRLTVLEDLKNVFPPEVAVFEPSEAEISHTQKATLVCLATGFYPDHVELSWWVNGKEVHSGVCTDPQPLKEQPALNDSRYCLSSRLRVSATFWQNPRNHFRCQVQFYGLSENDEWTQDRAKPVTQIVSAEAWGRADCGFTSESYQQGVLSATILYEILLGKATLYAVLVSALVLMAMVKRKDSRGRAKRSGSGATNFSLLKQAGDVEENPGPTSATMDWIWRILFLVGAATGAHSGPQVQLQESGGGLAQAGGSLRLSCAASGRTFSMGWFRQAPGKEREFVAAITYSGGSPYYASSVRGRFTISRDNAKNTVYLQMNSLKPEDTAVYYCAANPTYGSDWNAENWGQGTQVTVSSGSGGGGSGGGGSGGGGSFEAQTVTQSQPEMSVQEAETVTLSCTYDTSESDYYLFWYKQPPSRQMILVIRQEAYKQQNATENRFSVNFQKAAKSFSLKISDSQLGDAAMYFCAYRSAVNARLMFGDGTQLVVKPNTRIQNPDPAVYQLRDSKSSDKSVCLFTDFDSQTNVSQSKDSDVYITDKCVLDMRSMDFKSNSAVAWSNKSDFACANAFNNSIIPEDTFFPSPESSCDVKLVEKSFETDTNLNFQNLSVIGFRILLLKVAGFNLLMTLRLWSSRAKRSGSGVKQTLNFDLLKLAGDVESNPGPSRGHMTEYKPTVRLATRDDVPRAVRTLAAAFADYPATRHTVDPDRHIERVTELQELFLTRVGLDIGKVWVADDGAAVAVWTTPESVEAGAVFAEIGPRMAELSGSRLAAQQQMEGLLAPHRPKEPAWFLATVGVSPDHQGKGLGSAVVLPGVEAAERAGVPAFLETSAPRNLPFYERLGFTVTADVEVPEGPRTWCMTRKPGA | + (refer to approximately 5%, 10%, 20%, 30%, 40% and 50% GFP positive cells)
22202 (protein) MALPVTALLLPLALLLHAARPACAGHLEQPQISSTKTLSKTARLECVVSGITISATSVYWYRERPGEVIQFLVSISYDGTVRKESGIPSGKFEVDRIPETSTSTLTIHNVEKQDIATYYCALWEAQQELGKKIKVFGPGTKLIITDKQLDKQLDADVSPKPTIFLPSIAETKLQKAGTYLCLLEKFFPDVIKIHWQEKKSNTILGSQEGNTMKTNDTYMKFSWLTVPEKSLDKEHRCIVRHENNKNGVDQEIIFPPIKTDVITMDPKDNCSKDANDTLLLQLTNTSAYYMYLLLLLKSVVYFAIITCCLLRRTAFCCNGEKSRAKRSGSGATNFSLLKQAGDVEENPGPTSATMDWIWRILFLVGAATGAHSGPQVQLQESGGGLAQAGGSLRLSCAASGRTFSMGWFRQAPGKEREFVAAITYSGGSPYYASSVRGRFTISRDNAKNTVYLQMNSLKPEDTAVYYCAANPTYGSDWNAENWGQGTQVTVSSGSGGGGSGGGGSGGGGSFEAIELVPEHQTVPVSIGVPATLRCSMKGEAIGNYYINWYRKTQGNTMTFIYREKDIYGPGFKDNFQGDIDIAKNLAVLKILAPSERDEGSYYCACDTLGMGGEYTDKLIFGKGTRVTVEPRSQPHTKPSVFVMKNGTNVACLVKEFYPKDIRINLVSSKKITEFDPAIVISPSGKYNAVKLGKYEDSNSVTCSVQHDNKTVHSTDFEVKTDSTDHVKPKETENTKQPSKSCHKPKAIVHTEKVNMMSLTVLGLRMLFAKTVAVNFLLTAKLFFLRAKRSGSGVKQTLNFDLLKLAGDVESNPGPSRAHMTEYKPTVRLATRDDVPRAVRTLAAAFADYPATRHTVDPDRHIERVTELQELFLTRVGLDIGKVWVADDGAAVAVWTTPESVEAGAVFAEIGPRMAELSGSRLAAQQQMEGLLAPHRPKEPAWFLATVGVSPDHQGKGLGSAVVLPGVEAAERAGVPAFLETSAPRNLPFYERLGFTVTADVEVPEGPRTWCMTRKPGA | Raji (3+) (refer to approximately 5%, 10%, 20%, 30%, 40% and 50% GFP positive cells)
